Values of other authors as cited in article PMC5650667.
pKd: −log10 of the molar value. One block for each substance: values may come before it.

Key:
[1] = molecular target: RXFP2 (Homo sapiens) (UniProt Q8WXD0)
[2] = molecular target: RXFP4 (Homo sapiens) (UniProt Q8TDU9)
[3] = molecular target: TRH1 receptor (Homo sapiens) (UniProt P34981); assay: radioligand binding
Sequence of UniProt P34981 (P34981 whole entry): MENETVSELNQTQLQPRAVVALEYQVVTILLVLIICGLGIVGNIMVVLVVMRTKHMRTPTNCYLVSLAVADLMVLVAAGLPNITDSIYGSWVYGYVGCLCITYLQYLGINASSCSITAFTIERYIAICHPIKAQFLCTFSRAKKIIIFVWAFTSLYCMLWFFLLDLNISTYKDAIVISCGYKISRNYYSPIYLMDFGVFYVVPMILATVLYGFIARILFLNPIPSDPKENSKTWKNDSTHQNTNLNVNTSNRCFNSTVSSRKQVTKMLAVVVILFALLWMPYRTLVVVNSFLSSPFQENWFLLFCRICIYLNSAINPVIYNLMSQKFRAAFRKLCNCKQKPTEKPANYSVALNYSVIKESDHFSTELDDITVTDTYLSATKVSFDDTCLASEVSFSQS

Sequence of UniProt Q8TDU9 (Q8TDU9 whole entry): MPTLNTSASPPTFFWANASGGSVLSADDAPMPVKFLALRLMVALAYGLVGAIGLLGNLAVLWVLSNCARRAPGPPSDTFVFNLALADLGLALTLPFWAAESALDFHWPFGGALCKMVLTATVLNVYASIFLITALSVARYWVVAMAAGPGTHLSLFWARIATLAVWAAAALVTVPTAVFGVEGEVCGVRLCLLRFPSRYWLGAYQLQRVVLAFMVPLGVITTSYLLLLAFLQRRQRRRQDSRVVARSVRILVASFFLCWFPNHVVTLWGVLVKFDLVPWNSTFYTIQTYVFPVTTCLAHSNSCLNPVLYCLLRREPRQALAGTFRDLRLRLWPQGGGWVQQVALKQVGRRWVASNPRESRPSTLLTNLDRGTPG
Sequence of UniProt Q8WXD0 (Q8WXD0 whole entry): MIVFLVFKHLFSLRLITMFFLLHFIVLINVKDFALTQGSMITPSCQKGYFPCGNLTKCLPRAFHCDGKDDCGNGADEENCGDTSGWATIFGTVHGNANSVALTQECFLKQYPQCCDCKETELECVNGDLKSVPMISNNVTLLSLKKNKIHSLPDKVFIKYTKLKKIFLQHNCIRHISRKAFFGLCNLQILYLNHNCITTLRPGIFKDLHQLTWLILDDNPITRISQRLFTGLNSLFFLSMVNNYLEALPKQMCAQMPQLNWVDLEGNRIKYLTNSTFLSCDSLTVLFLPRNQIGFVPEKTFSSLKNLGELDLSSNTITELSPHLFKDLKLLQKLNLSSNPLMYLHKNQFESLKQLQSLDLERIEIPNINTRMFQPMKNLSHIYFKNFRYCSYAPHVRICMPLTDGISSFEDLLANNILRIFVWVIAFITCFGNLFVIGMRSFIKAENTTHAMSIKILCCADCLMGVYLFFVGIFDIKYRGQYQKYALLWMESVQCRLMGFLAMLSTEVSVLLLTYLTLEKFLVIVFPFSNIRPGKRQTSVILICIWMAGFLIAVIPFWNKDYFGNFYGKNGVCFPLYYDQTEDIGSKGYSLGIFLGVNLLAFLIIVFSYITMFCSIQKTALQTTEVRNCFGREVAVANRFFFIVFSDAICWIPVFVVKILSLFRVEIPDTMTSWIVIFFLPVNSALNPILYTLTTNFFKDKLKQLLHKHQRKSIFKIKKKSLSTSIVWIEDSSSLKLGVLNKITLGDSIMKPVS

pKd [1]: 9.00
Substance: INSL3 (from UniProt P51460)

pKd [2]: 8.30
Substance: INSL5 (from UniProt Q9Y5Q6)

pKd [3]: 7.89
Substance: TRH (from UniProt P20396)
